Results reported in patent US11180777B2, “Cell fraction and method of generating a cell fraction containing a protein of interest” (Corning Incorporated, priority 2015, dated 2021).
Blank lines part the entries; values can stand above or below the molecule they belong to.

Key:
Aldehyde Oxidase (AO) = target: T1, Aldehyde Oxidase (AO) (Homo sapiens, UniProt Q06278); assay: AO assay with probe substrate phthalazine (HPLC); assay type: biochemical; conditions: rAO prepared with transfected HEK293 cells
T1 construct: made in house; host or cells: HEK293 cells, transfected by electroporation; supernatant (soluble fraction) after the 37,000 rpm spin
T1 sequence (Q06278 1-1338): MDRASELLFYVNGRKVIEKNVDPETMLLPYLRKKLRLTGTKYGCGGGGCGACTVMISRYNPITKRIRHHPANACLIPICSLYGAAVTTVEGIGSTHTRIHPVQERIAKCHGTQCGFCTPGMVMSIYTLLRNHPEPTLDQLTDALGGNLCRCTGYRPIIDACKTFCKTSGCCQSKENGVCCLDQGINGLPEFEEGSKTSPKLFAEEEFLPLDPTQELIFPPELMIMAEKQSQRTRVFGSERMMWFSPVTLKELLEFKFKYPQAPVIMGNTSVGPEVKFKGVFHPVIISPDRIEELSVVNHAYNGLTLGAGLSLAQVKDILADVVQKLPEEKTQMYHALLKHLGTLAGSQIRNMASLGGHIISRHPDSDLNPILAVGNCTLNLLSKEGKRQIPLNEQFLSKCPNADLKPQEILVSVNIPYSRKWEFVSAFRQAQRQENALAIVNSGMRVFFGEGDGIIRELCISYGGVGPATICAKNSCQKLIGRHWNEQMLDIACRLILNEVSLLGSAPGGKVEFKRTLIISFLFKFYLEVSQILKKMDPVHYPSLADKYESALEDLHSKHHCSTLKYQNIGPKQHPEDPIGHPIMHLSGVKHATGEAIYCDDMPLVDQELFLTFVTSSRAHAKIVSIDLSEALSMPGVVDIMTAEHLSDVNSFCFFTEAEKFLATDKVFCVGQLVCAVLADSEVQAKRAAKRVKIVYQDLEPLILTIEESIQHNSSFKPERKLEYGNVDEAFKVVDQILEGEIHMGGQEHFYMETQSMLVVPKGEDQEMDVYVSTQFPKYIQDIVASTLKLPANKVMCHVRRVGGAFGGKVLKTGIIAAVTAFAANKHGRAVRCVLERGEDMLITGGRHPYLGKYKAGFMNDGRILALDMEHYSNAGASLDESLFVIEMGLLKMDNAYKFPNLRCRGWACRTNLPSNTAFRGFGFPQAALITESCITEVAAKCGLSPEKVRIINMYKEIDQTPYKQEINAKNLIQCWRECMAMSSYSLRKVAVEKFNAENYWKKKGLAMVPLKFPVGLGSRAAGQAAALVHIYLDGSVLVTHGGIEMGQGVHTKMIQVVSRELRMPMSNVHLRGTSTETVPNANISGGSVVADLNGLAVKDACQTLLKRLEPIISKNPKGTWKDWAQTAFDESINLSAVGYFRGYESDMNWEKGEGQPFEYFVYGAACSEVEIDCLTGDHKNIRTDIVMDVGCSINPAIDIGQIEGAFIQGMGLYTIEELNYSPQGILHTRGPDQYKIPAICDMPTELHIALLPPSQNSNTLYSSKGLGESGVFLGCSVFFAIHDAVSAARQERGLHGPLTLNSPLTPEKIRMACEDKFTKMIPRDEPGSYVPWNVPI
Description: (§1) The recombinant AO and UGT1A1 enzymes were prepared as following. Briefly, the cells pellets obtained from the cell recovery step were washed once with phosphate buffered saline (PBS) and centrifuged at 1500 rpm for 10 min at 4° C. The resulting pellet was diluted with appropriate amount of 0.1 M potassium phosphate buffer, and transferred into Dounce Homogenizer followed with 10 stokes. The cell lysate was centrifuged at 2600 rpm for 10 minutes at 4° C. The supernatant was transferred to a new set of centrifuge tube and spun at 37,000 rpm for 15 minutes at 4° C. For recombinant AO, the supernatant (soluble fraction) was aliquoted and stored at −80° C. until use. For UGT1A1 microsomes, the pellet was resuspended in an appropriate amount of 0.1M Tris buffer and homogenized with a Dounce homogenizer with 10 strokes. The UGT1A1 microsomes were aliquoted and stored at −80° C. until use.
AO assays are carried out at 37° C. in 25 mM potassium phosphate buffer (pH7.4) containing 0.1 mM EDTA. 170 μL assay buffer was mixed with 20 μL 1 mM phthalazine and prewarmed to 37° C. in heat block. The reaction is initiated with 10 μL 5 mg/mL AO sample. The cap needs to be opened for oxygen circulation. After incubation, the reaction was stopped by the addition of 100 ul 94% acetonitrile/6% glacial acetic acid. The reaction mix was centrifuged (10,000×g) for 3 minutes and supernatant was analyzed on HPLC.

UGT1A1 = target: T2, UGT1A1 (Homo sapiens, UniProt P22309); assay: UGT1A1 assay (beta-estradiol glucuronidation, HPLC); assay type: biochemical; conditions: electroporation method versus BEVs system
T2 construct: made in house; host or cells: HEK293 cells, electroporated with UGT1A1 cDNA; microsomes (membrane pellet)
T2 sequence (P22309 26-533): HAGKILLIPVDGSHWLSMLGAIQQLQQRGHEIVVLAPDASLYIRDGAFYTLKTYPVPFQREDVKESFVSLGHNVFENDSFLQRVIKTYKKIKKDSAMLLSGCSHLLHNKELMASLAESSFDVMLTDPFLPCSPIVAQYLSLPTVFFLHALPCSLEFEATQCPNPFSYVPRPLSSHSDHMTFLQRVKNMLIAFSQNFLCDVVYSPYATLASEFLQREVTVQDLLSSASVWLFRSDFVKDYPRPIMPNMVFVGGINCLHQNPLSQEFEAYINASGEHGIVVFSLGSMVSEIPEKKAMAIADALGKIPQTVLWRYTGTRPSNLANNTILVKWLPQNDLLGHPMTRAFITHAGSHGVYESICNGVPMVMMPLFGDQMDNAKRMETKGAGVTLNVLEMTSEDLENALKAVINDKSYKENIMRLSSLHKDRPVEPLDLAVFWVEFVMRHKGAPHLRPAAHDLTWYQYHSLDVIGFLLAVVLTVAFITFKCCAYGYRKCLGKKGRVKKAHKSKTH
Description: as §1
A 0.2 ml reaction mixture containing 1.0 mg/ml protein, 2 mM uridine diphosphoglucuronic acid (UDPGA), 10 mM magnesium chloride, 0.025 mg/ml alamethicin and 150 uM beta-estradiol in 50 mM Tris (pH 7.5) was incubated at 37° C. for 30 minutes. After incubation, the reaction was stopped by the addition of 50 ul 94% acetonitrile/6% glacial acetic acid. The reaction mix was centrifuged (10,000×g) for 3 minutes and supernatant was analyzed on HPLC.

Molecule: Aldehyde Oxidase (AO): recombinant Phase 1 drug metabolizing enzyme Aldehyde Oxidase prepared with transfected HEK293 cells (soluble fraction)
AO kinetics with phthalazine (Aldehyde Oxidase (AO)): exhibited standard michaelis-mention kinetics curve

UGT1A1 activity relative to UGT1A1 expressed with the BEVs system (UGT1A1): 5 ×
B1: UGT1A1: UGT1A1 expressed using the electroporation method (HEK293 microsomes) (protein, UniProt P22309 26-533, looked up)
UDP-glucuronosyltransferase …: T2 sequence (P22309 26-533)
